From paper PMC7382241, “Genomic discovery of an evolutionarily programmed modality for small-molecule targeting of an intractable protein surface” (Proceedings of the National Academy of Sciences of the …, 2020)

Target: the molecule itself
Experiment: crystal structure; CEP250_(11.4) with three-molar excess of FKBP12 and nine-molar excess of WDB002, ternary complex isolated by SEC; crystals in 0.1 M Hepes 7.0, 0.2 M sodium malonate, 21% PEG 3350

B1: CEP250_(11.4) (residues 2,134 to 2,231) (domain or fragment, human, UniProt Q9BV73 2134-2231, looked up)
chain: MEEQSLKLDSLEPRLQRELERLQAALRQTEAREIEWREKAQDLALSLAQTKASVSSLQEVAMFLQASVLERDSEQQRLQDELELTRRALEKERLHSPG
notes: human CEP250 residues 2,134 to 2,231; forms a homodimeric coiled coil in the crystal; tags not specified in the main text; Tags are in SI Materials and Methods; also called 11.4 kDa degradation product of CEP250; source: E. coli BL21(DE3)pLysS
stoichiometry N: 2
